Results published in US20240199761A1 (AstraZeneca / MedImmune, published 2024).
Residue numbers refer to the chain shown, from its start. One block for each binder: values may come before it.

Legend:
recombinant mouse PAD4 = target: T1, recombinant mouse PAD4 (mouse, UniProt Q9Z183 1-666); assay: SPR; biotinylated antibody captured on C1-streptavidin, PAD4 flowed over
T1 construct: Recombinant

recombinant human PAD2 [1] = target: recombinant human PAD2 (human, UniProt Q9Y2J8 1-665); assay: cell-based or functional assay
recombinant mouse PAD2 [2] = target: T2, recombinant mouse PAD2 (mouse, UniProt Q08642 1-673); assay: ratio of SPR KDs, mouse PAD2 against human PAD2; antibody captured on C1-Protein G', PAD flowed over
T2 construct: Recombinant and tagged

recombinant human PAD2 [3] = target: recombinant human PAD2 (human, UniProt Q9Y2J8 1-665, enzymatically biotinylated on an Avi-tag (when captured on the SPR chip)); assay: cell-based or functional assay
[4] = target: T3, human PAD2, recombinant, tags at the N-terminus (human, UniProt Q9Y2J8 1-665, enzymatically biotinylated on an Avi-tag where captured on streptavidin); assay: SPR; antibody on C1-Protein G', PAD2 flowed over
T3 construct: not shown: N-terminal tags incl; Avi-tag

[5] = target: T4, cynomolgus PAD2, recombinant, tags at the N-terminus (cynomolgus, UniProt G7NUR0 1-665, enzymatically biotinylated on an Avi-tag where captured on streptavidin); assay: SPR; antibody on C1-Protein G', PAD2 flowed over
T4 construct: also called Cyno PAD2; not shown: N-terminal tags incl; Avi-tag

[6] = target: T5, mouse PAD2, recombinant, tags at the N-terminus (mouse, UniProt Q08642 1-673, enzymatically biotinylated on an Avi-tag where captured on streptavidin); assay: SPR; antibody on C1-Protein G', PAD2 flowed over
T5 construct: not shown: N-terminal tags incl; Avi-tag

[7] = target: T3, human PAD2, recombinant, tags at the …; assay: SPR; antibody captured on a surface, PAD2 flowed over
[8] = target: T4, cynomolgus PAD2, recombinant, tags at …; assay: as above
[9] = target: T5, mouse PAD2, recombinant, tags at the …; assay: as above
recombinant human PAD2 [10] = target: T6, recombinant human PAD2 (human, UniProt Q9Y2J8 1-665, enzymatically biotinylated on an Avi-tag); assay: SPR (Biacore 8K), biotinylated PAD2 on streptavidin chip, Fab flowed over
T6 construct: Recombinant, biotinylated on an Avi-tag and captured on streptavidin; also called peptidyl arginine deiminase 2

recombinant mouse PAD2 [11] = target: T7, recombinant mouse PAD2 (mouse, UniProt Q08642 1-673, enzymatically biotinylated on an Avi-tag); assay: as above
T7 construct: Recombinant, biotinylated on an Avi-tag

[12] = target: T3, human PAD2, recombinant, tags at the …; assay: SPR; antibody on C1-Protein G', PAD2 flowed over; remark: listed apart in the source
[13] = target: T4, cynomolgus PAD2, recombinant, tags at …; assay: SPR; antibody on C1-Protein G', PAD2 flowed over; remark: listed apart in the source
[14] = target: T5, mouse PAD2, recombinant, tags at the …; assay: SPR; antibody on C1-Protein G', PAD2 flowed over; remark: listed apart in the source
huFcRn = target: T8, huFcRn (human, UniProt P55899 24-297; P61769 21-119, limits assumed); assay: huFcRn affinity chromatography, pH gradient elution
T8 construct: also called human neonatal Fc receptor

Kd (recombinant mouse PAD4): 94 pM | koff (recombinant mouse PAD4): 0.000106 s⁻¹ | kon (recombinant mouse PAD4): 1.14e+06 M⁻¹ s⁻¹
B1: AB1630205 (mouse anti-PAD4) (antibody, V domains shown)
VH: EVQLVESGGGLVKPGGSRKLSCAASGFTFSDYGMHWVRQAPEKGLEWVAYISSGSSTIYYADTVKGRFTISRDNAKNTLFLQMTSLRSEDTAMYYCTRTYYDDAMDYWGQGTSVTVSS
VL: SIVMTQTPKFLLVSAGDRVTITCKASQSVSNDVVWYQQKPGQSPKLLISYASNRYTGVPDRFTGSGYGTDFTFTISSVQAEDLAVYFCQQDYSSPWTFGGGTKLEIK
notes: Biotinylated antibody captured on the chip

Kd (recombinant mouse PAD4): 1310 pM | koff (recombinant mouse PAD4): 0.000314 s⁻¹ | kon (recombinant mouse PAD4): 239000 M⁻¹ s⁻¹
B2: AB1630204 (mouse anti-PAD4) (antibody, V domains shown)
VH: QVQLQQPGAELVKPGASVKLSCKASGYTFTSYWMHWVKQRPGRGPEWIGRIDPNSGGTKYNEKFKSKAILTVDKPSSTAYMQLSSLTSEDSAVYYCAREGGDYWYFDVWGAGTTVTVSS
VL: QIVLTQSPALMSASPGEKVTMTCSANSGLRYMYWYQQKPRSSPKPWIYLTSNLASGVPARFSGSGSGTSYSLTISSMEAEDAATYYCQQWSSIPPTFGAGTKLELK
notes: as for B1

Potency (IC50), Histone-H3 assay (recombinant human PAD2 [1]): 138 pM | fold difference in KD, mouse/human (recombinant mouse PAD2 [2]): 1.2 fold
B3: Clone 22 (IgG) (141LO0035 hIgG1 pgl-4) (antibody, V domains shown)
VH: not shown
VL: SYVLTQPPSVSVSPGQTASITCSGDKVGDKYVSWYQQKPGQSPVLVIYQDSQRPSGIPERFSGSNSGNTATLTISGTQAMDEADYYCQTWAPDVLLFGSGTKVTVL
notes: also called PAD2 IgG

potency (IC50), Histone-H3 citrullination ELISA, recombinant PAD2 (recombinant human PAD2 [3]): < 1000 pM
B4: Clone 22 (141LO0035 hIgG1 pgl-4), anti-PAD2, as IgG (antibody, V domains shown)
VH: not shown
VL: B3 VL

Kd [4]: 3.9 pM | Kd [5]: 11 pM | Kd [6]: 4.59 pM | Kd [7]: 3.9 pM | koff [7]: 1.71e-05 s⁻¹ | kon [7]: 4.36e+06 M⁻¹ s⁻¹ | Kd [8]: 11 pM | koff [8]: 3.33e-05 s⁻¹ | kon [8]: 3.06e+06 M⁻¹ s⁻¹ | Kd [9]: 4.59 pM | koff [9]: 2.24e-05 s⁻¹ | kon [9]: 4.93e+06 M⁻¹ s⁻¹
B5: anti-PAD2 Clone 22 (141LO0035 hIgG1 pgl-4), IgG (antibody, V domains shown)
VH: not shown
VL: B3 VL
notes: also called Clone 22 (IgG)

Kd (recombinant human PAD2 [10]): 3900 pM | Kd (recombinant mouse PAD2 [11]): 17800 pM
B6: 141LO0039 hIgG1 pgl-4 (anti-PAD2) Fab (Fab, V domains shown)
VH: not shown
VL: B3 VL with Q88H, W90Y, P92E, V94E, L95Y, L96V
notes: Tested as Fab

Kd (recombinant human PAD2 [10]): 2780 pM | Kd (recombinant mouse PAD2 [11]): 38500 pM
B7: 141LO0002 hIgG1 pgl-4 (anti-PAD2) Fab (Fab, V domains shown)
VH: not shown
VL: B3 VL with Q88E, T89V, W90G, A91V, P92D, D93Y, V94E, L95Y, L96V

Kd (recombinant human PAD2 [10]): 3310 pM | Kd (recombinant mouse PAD2 [11]): 33800 pM
B8: 141LO0002 hIgG1 pgl-3 (anti-PAD2) Fab (Fab, V domains shown)
VH: not shown
VL: B3 VL with Q88E, T89V, W90G, A91V, P92D, D93Y, V94E, L95Y, L96V
notes: Tested as Fab

Kd (recombinant human PAD2 [10]): 185 pM | Kd (recombinant mouse PAD2 [11]): 571 pM
B9: 141LO0035 hIgG1 ngl-2 (anti-PAD2) Fab (Fab, V domains shown)
VH: not shown
VL: B3 VL with S42A, I47M, F61I, M80V, D84E
notes: Tested as Fab

potency (IC50), Histone-H3 citrullination ELISA, recombinant PAD2 (recombinant human PAD2 [3]): < 1000 pM
B10: Clone 08 (Bis3, TM; PAD2 Fab, PAD4 scFv) (bispecific antibody, human IgG1, lambda)
heavy: not shown
light: SYVLTQPPSVSVSPGQTASITCSGDKVGDKYVSWYQQKPGQSPVLVIYQDSQRPSGIPERFSGSNSGNTATLTISGTQAMDEADYYCQTWAPDVLLFGSGTKVTVLGQPKAAPSVTLFPPSSEELQANKATLVCLISDFYPGAVTVAWKADSSPVKAGVETTTPSKQSNNKYAASSYLSLTPEQWKSHRSYSCQVTHEGSTVEKTVAPTECS

potency (IC50), Histone-H3 citrullination ELISA, recombinant PAD2 (recombinant human PAD2 [3]): < 1000 pM
B11: Clone 07 (Bis3, TM; PAD4 Fab, PAD2 scFv) (bispecific antibody, human IgG1, lambda)
heavy: not shown
light: QSALTQPRSVSGSPGQSVTISCTGTSGDVGRYSHVSWYQQHPGKAPKLIIYNVYERPSGVPDRFSGSKSGNTASLTISGLQAEDEADYYCSSHSRSSTPVLFGGGTKLTVLGQPKAAPSVTLFPPSSEELQANKATLVCLISDFYPGAVTVAWKADSSPVKAGVETTTPSKQSNNKYAASSYLSLTPEQWKSHRSYSCQVTHEGSTVEKTVAPTECS

Kd [12]: 16.1 pM | koff [12]: 3.21e-05 s⁻¹ | kon [12]: 2e+06 M⁻¹ s⁻¹ | Kd [13]: 21.9 pM | koff [13]: 5.46e-05 s⁻¹ | kon [13]: 2.61e+06 M⁻¹ s⁻¹ | Kd [14]: 16.2 pM | koff [14]: 4.45e-05 s⁻¹ | kon [14]: 2.76e+06 M⁻¹ s⁻¹ | Kd [4]: 16.1 pM | Kd [5]: 21.9 pM | Kd [6]: 16.2 pM
B12: Clone 07, Bis3 anti-PAD4 Fab / anti-PAD2 scFv, Fc TM (bispecific antibody, human IgG1, lambda)
heavy: not shown
light: B11 light
notes: Bivalent for PAD2 and for PAD4; also called Clone 7*; PAD240007

Potency (IC50), Histone-H3 assay (recombinant human PAD2 [1]): 238 pM | HPLC retention (huFcRn): 17.8 min | Relative retention (huFcRn): -0.081 | fold difference in KD, mouse/human (recombinant mouse PAD2 [2]): 1 fold
B13: Clone 07 (Bis3, TM; Fab anti-PAD4, scFv anti-PAD2) (bispecific antibody, human IgG1, lambda)
heavy: not shown
light: B11 light
notes: Bivalent bispecific IgG-HC-scFv; also called Clone 7*; PAD240007

Kd (recombinant human PAD2 [10]): 6730 pM | Kd (recombinant mouse PAD2 [11]): 2350 pM
B14: PAD40175 hIgG1 ngl-2 (anti-PAD2) Fab (Fab, V domains shown)
VH: not shown
VL: QAVLTQPSSVSVAPGKTATITCGGDNIGSKSVHWYQQKPGQAPLLVIFYDTDRPSGVPERFSGSNSGNTATLTISRVEAGDEADYYCQVWDSNGDHYVFGTGTKLTVL
notes: Tested as Fab
